Values quoted from earlier work, collected in patent CN114306299A, “贝利司他在制备缓解和/或治疗缺血性脑卒中药物中的应用” (Institute of Materia Medica of CAMS and PUMC, priority 2020, dated 2022).

Tested on: stroke (脑卒中)
Details: clinical studies, fraction of patients

B1: t-PA: 美国FDA唯一批准用于治疗脑卒中的药物 (protein, UniProt P00750 36-562, looked up)
Tissue-type plasminogen …: SYQVICRDEKTQMIYQQHQSWLRPVLRSNRVEYCWCNSGRAQCHSVPVKSCSEPRCFNGGTCQQALYFSDFVCQCPEGFAGKCCEIDTRATCYEDQGISYRGTWSTAESGAECTNWNSSALAQKPYSGRRPDAIRLGLGNHNYCRNPDRDSKPWCYVFKAGKYSSEFCSTPACSEGNSDCYFGNGSAYRGTHSLTESGASCLPWNSMILIGKVYTAQNPSAQALGLGKHNYCRNPDGDAKPWCHVLKNRRLTWEYCDVPSCSTCGLRQYSQPQFRIKGGLFADIASHPWQAAIFAKHRRSPGERFLCGGILISSCWILSAAHCFQERFPPHHLTVILGRTYRVVPGEEEQKFEVEKYIVHKEFDDDTYDNDIALLQLKSDSSRCAQESSVVRTVCLPPADLQLPDWTECELSGYGKHEALSPFYSERLKEAHVRLYPSSRCTSQHLLNRTVTDNMLCAGDTRSGGPQANLHDACQGDSGGPLVCLNDGRMTLVGIISWGLGCGQKDVPGVYTKVTNYLDWIRDNMRP
- patients in whom treatment is ineffective or condition worsens (after t-PA treatment): 三分之二
- patients in whom t-PA is effective: 三分之一
